# From the supplement of paper PMC9170038
# Columns and labels:
# MS2 coat protein = assay: apparent KD of MS2 coat protein; higher = weaker reporter binding; details: Eterna round: R107
# Procedure: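 RNA-MaP round R107: designed RNA switches with theophylline, tryptophan, arginine or FMN aptamers are transcribed on-chip within common flanks. They are titrated with SNAP-549-labelled MS2 coat protein in RNA-MaP buffer (100 mM Tris pH 7.5, 80 mM KCl, 4 mM MgCl2), without ligand or with the indicated ligand. Median apparent KD per design.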
# [1] = tested on: K4 kissing-loop RNA reporter; assay: apparent KD of K4 kissing-loop reporter; higher = weaker reporter binding; details: Eterna round: R107;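 also: bound reporter read as fluorescence of individual clusters on recovered sequencing chips by microscopy, with normalized cluster intensities fitted with a binding model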
# Procedure: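 RNA-MaP round R107: designed RNA switches with theophylline, tryptophan, arginine or FMN aptamers are transcribed on-chip within common flanks. They are titrated with a labelled K4 kissing-loop RNA reporter in RNA-MaP buffer (100 mM Tris pH 7.5, 80 mM KCl, 4 mM MgCl2), without ligand or with the indicated ligand. Median apparent KD per design.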
# [2] = input ligand: theophylline 20 uM
# [3] = input ligand: theophylline 2 mM
# [4] = input ligand: tryptophan 2.4 mM
Sequence,apparent KD of MS2 coat protein (MS2 coat protein; input ligand: arginine 13.2 mM) [µM],apparent KD of MS2 coat protein (MS2 coat protein; input ligand: none) [µM],apparent KD of MS2 coat protein (MS2 coat protein; [2]) [µM],apparent KD of MS2 coat protein (MS2 coat protein; [3]) [µM],apparent KD of MS2 coat protein (MS2 coat protein; [4]) [µM],apparent KD of K4 kissing-loop reporter ([1]; input ligand: FMN 200 uM) [µM],apparent KD of K4 kissing-loop reporter ([1]; input ligand: arginine 13.2 mM) [µM],apparent KD of K4 kissing-loop reporter ([1]; input ligand: none) [µM],"apparent KD of K4 kissing-loop reporter [1, 2] [µM]","apparent KD of K4 kissing-loop reporter [1, 4] [µM]"
AAAACCUCACCUGAGGAACACCCAGGUGAUACCAGCCUGGAAACAGGCCCUUGGCAGCACCAGGUCAUCAAAGAUGACCAAAUAA [TheoAX 25 #OpenEnded #AlternativeMS2],0.0175,0.0227,0.0407,0.595,0.0213,,,,,
AAAAGACAUGAGGAUCACCCAUGUAGAGAUACCAGAUGCAUGGACAUCCCUUGGCAGCUCGUCACUUUCUAUAUUUUCCAGACGC [theeternabot_sameState_MS2_Theo_A_37],0.031,,0.0591,,0.0591,,,,,
AAAAGAGGUGGAAGGAGCGGGAGACAUGAGGAUCACCCAUGUGAAGUAACGAAAGGUACAGCCCAGGUAGGUCGCCAUGUCGAAA [qxqamullin],0.0206,0.0317,0.0735,0.0404,0.0328,,,,,
AAAAGUAGGUCCAAUAAAACUACAUGUGAAGGAGCGCGCGAAAGCGCAGGUAGGUCGCACAUGAGGAUCACCCAUGUCCUACAAA [MAT - Exclusion Arginine A - Mod of Eli - D6],0.0398,0.0473,0.0772,0.0657,0.0398,,,,,
AAAAUAAAAGGUGCAAAAUCCUAAUGUGAAGGAGCGCACGAAAGUGCAGGUAGGUCGCACAUGAGGAUCACCCAUGUAGCACCAA [ArgEX 4 #SwitchBubble],0.0548,0.146,0.115,0.211,0.147,,,,,
AAAAUCCUACUUGAGGAUCACCCAGGUGAAGGAGCGCCCGAAAGGGCAGGUAGGUCGCACCUGAGGAUCACCCUGGUAACCUAAA [ArgEX 9 #DoubleMS2 #OpenEnded],0.14,0.164,0.171,0.211,0.178,,,,,
AAACGUUGCUGCGAUACCAGACAUGAGGAUCACCCAUGUACCAAGAAAACGUACAUAAAUGUCCCUUGGCAGCGCAGCAACGAAA [MAT - Exclusion Theophlline B - Mod of Eli - D28],0.141,,0.511,,0.635,,,,,
AAAUAAACCUCGGCCGCCACUCGCCAUGAGGAUCACCCAUGUAACAUGAGGAUCACCCAUGUACAGAGGACCGGGAGGUCCUAGU [Same State Tryptophan B GF 13],0.0483,,0.0689,0.0871,,,,,,
AACAACAAGGGAAGGAGCGCGAAUAAUAAACAUGAGGAUCACCCAUGUAUCAUGGGCUUAACGCAGGUAGGUCGCCCACAAACAA [Exclusion Arginine B GF1],0.034,0.0379,0.0472,0.0494,0.0406,,,,,
AACACACCAAAUGAUACCAGCUACAACAUGAUACAAAACCACAUGAGGAUCACCCAUGUAAGCCCUUGGCAGCAUACUACUGUAA [theeternabot_exclusion_MS2_Theo_B_40],0.0169,,0.0242,,0.0187,,,,,
AACAUACAAUAAUAGGUGGAUAUAAGGCGGCGAGGACCGGUACGGCCGCCACUCGCGUACAUGAGGAUCACCCAUGUCUGAAACU [Same State - Tryptophan A (Freestyle 3)],0.0168,,0.0268,0.027,,,,,,
AACAUGAGGAUCACCCAUGUCCUCGUGUACCGAGGACCGGUACGGCCGCCACUCGGUUCUCGCGAGGAUGGUCAAAGACUAUCCA [Omei Trp A SS B v4],0.202,,0.643,1.01,,,,,,
AACGAGUGGCGGCCAUUGGGUGAUCCUCUACGAGGACCGGUACGGCCGCCACUCGAUAACAUGAGGAUCACCCAUGUGCCGAUAA [|T'-M'-Trp-Ms2|_Design10b],0.0423,,0.164,0.24,,,,,,
AAGAACAUGAGGAUCACCCAUGUGAUCGUUCGAGGACCGGUACGGCCGCCACUCGGACCUGUGUCCAGGCACGGGCCGACGCGAC [theeternabot_sameState_MS2_Trp_A_21],0.0748,,0.118,0.106,,,,,,
UGUGUUUACCUGACUCAGUGAUGUUGAGAAGGAGCGUGCGAAAGCACAGGUAGGUCGCUCAAUCCUUAAUCAGGUGAGCACUAAA [#SwitchBubble 13 #K4Early],,,,,,0.394,0.507,0.502,0.447,0.359
UUAAUAUUGUCGGCCGCCACUGUUUAGUAUUUUGUAUAAUCUAUUUCAAAGUGAUGUUUUGAUUCCAGGACCGGGACAUUUGAUA [JR_Nu_ExcTryptoB_Sub031],,,,,,0.597,0.414,0.536,0.486,0.298
UUAAUUCCGGUGGUGUGUAGAACACAGUUACGAGGACCGGUACGGCCGCCACUCGGAUGCACUUUCAGUGAUGUUGAAAGCAUCA [Same State Tryptophan A GF 1],,,,,,0.67,0.514,0.643,0.498,0.69
UUACGAGUGAUGUUCGAAUAAAUCCAUUCAGAGGAUAUAGUAUUAACUAGAAGGCUGAAACCAACUUCGAGUGAUGUUCGAGGAU [Same State FMN A GF 3],,,,,,0.0945,0.0877,0.108,0.0884,0.0908

Sequence,apparent KD of MS2 coat protein (MS2 coat protein; input ligand: arginine 13.2 mM) [µM],apparent KD of MS2 coat protein (MS2 coat protein; input ligand: none) [µM],apparent KD of MS2 coat protein (MS2 coat protein; [2]) [µM],apparent KD of MS2 coat protein (MS2 coat protein; [3]) [µM],apparent KD of MS2 coat protein (MS2 coat protein; [4]) [µM],apparent KD of K4 kissing-loop reporter ([1]; input ligand: FMN 200 uM) [µM],apparent KD of K4 kissing-loop reporter ([1]; input ligand: arginine 13.2 mM) [µM],apparent KD of K4 kissing-loop reporter ([1]; input ligand: none) [µM],"apparent KD of K4 kissing-loop reporter [1, 2] [µM]","apparent KD of K4 kissing-loop reporter [1, 4] [µM]"
UUACUGAGUGAUGUUUGGAAAUAUCCUAGGCAGGAUAUGCGGAAACGCAGAAGGGCCACCUUCUAGUGAAGGAAACUUCGCUAUU [Ex FMN A 4],,,,,,0.536,0.284,0.423,0.397,0.379
UUAGAAGUAUACUUCAAGAGGUAUGCUGAUACCAGAGUCAAUUGACUCCCUUGGCAGCGGAUCGAGUGAUGUUCGUAACCUCAUU [AK3.1 SS Theophylline A],,,,,,0.16,0.238,0.209,0.246,0.141
UUAGAGAUCUCAGGAUAUCAGUGAUGUUGGUGUGCAGAUCUGAGAUAGAAUUCUAUCUCAGAUCAAUGAGAAGGGAGAUCUCAUU [AK5 Exc FMN B],,,,,,0.303,0.149,0.152,0.173,0.142
UUAGCAGUAUACUGCAAGACCUAUACUGAUACCAGAGCCUAUAGGCUCCCUUGGCAGCGGAUCGAGUGAUGUUCGUAAGGUCAUU [AK4.3 SS Theophylline A],,,,,,0.651,0.667,1.08,0.682,0.458
UUAUCAUCAGCGGCCGCCACUGCAAAUUGGAGUGAUGUUCCAAGCGUGGAUAUUGAAAUUACUAGUAGGACCGGGUUGAUGAAUU [AK 2 Ex Trypt B],,,,,,0.158,0.132,0.158,0.105,0.159
UUCAGGUGUUCGGCCGCCACUCCAGUGAUGUUGGAGUGGCUUCACAAGGGCCAGGACAAUGUAGGGAGGACCGGGAAUAUCGCAG [Atvebeance],,,,,,0.143,0.117,0.129,0.107,0.125
UUCGGAUAAGUCCUUCCGAAGAAGCCGGAAGGAGCGACUCAAUAGUCAGGUAGGUCGCCGGCAAGCGUAGUGAUGUUAUGCUCAC [Arg A SS t6],,,,,,0.966,0.598,0.882,0.713,0.74
UUCUACGAGUGAUGUUCGUAGUGUAUUCGCUAGGAUAUCGUUUUUUCGAGAAGGAGUGAUGAAGUGAUACGAAAGUAUCGCUUCU [FMN A 14],,,,,,0.223,0.241,0.352,0.411,0.292
UUCUUGAUGGAAACAUCGAGGAUUACUGAUACCAGUAUCGAUAGAUACCCUUGGCAGCAGAAUCAGUGAUCACGAGUGAUGUUCG [Ex Theophylline A K4 10],,,,,,0.655,0.551,0.733,0.564,0.569
UUGCCUCUGGCUGAUACCAGUGAUGCAGGGUAUGAAACAGGGAGUGAUGUUCCCUGCAGCCACCCUUGGCAGCAGUUUAAGUUUG [Exclusion Theophylline B GF 21],,,,,,0.182,0.152,0.181,0.158,0.16
UUGGUUGUCGUAGGAUAUGUAGGAUAUUCUAAAAUAUGAAGUGAUGUUUCUAUAAUAAGAAGAAGGACAGAAGGACGAUAACCAU [FmnBS 2 - Salish transfer #DoubleAptamer],,,,,,0.0847,0.1,0.111,0.103,0.0991
UUGUGCAGCAAACGAGUGAUGUUCGACGAUACCAGCCUCGAUAGAGGCCCUUGGCAGCGUAAUAAUCACAGCCAAGGGCUGCACU [#SwitchBubble 4],,,,,,0.651,0.535,0.749,0.774,0.56
UUGUUUGGUUGAGAGGUUGGGCGAGAUGAUACCAGUAUAGAAGAGUACCCUUGGCAGCAUAGGAGAGAUAUAGUGAUGUUGUAUG [SSTheophA.T],,,,,,0.437,0.355,0.48,0.494,0.333
UUUAAAUAUAGUGAUGUUAUAUAACAAUGACGAGGACCGGUACGGCCGCCACUCGAGAGAGAUAAUGGUCAUGCAAAUGUAUGUC [#15 K4 Tryptophan A Same State],,,,,,0.674,0.684,0.789,0.746,0.615
UUUCCAGAUAAGUGGGAACACUCCAUAACAGAGGAUAUCAGAGCGCUGAGAAGGCUGUUUUACAGUGAUGUUGUAAGUGUGGAGU [FMN A SS t2],,,,,,0.153,0.249,0.283,0.304,0.253
UUUGGAGUGGGAGGAUAUCCUAAUAUGGGUGAUGUUAGCGAUGUUGAAGGUGUAGUGAUGUUAUGCGGAGAAGGCCCAGUGUAGA [BDazzled - #18 - Exc. FMN B],,,,,,0.166,0.146,0.245,0.273,0.221
UUUUAUUAAUUCUUCUAGUGAUGUUAGAUACGAGGACCGGUACGGCCGCCACUCGCUUAUUGGUUUAUAUAUUUUAUAUUCUUUA [JR_SSTryptoA_Sub015],,,,,,0.293,0.319,0.33,0.4,0.264
UUUUUCGCGUUUGAUACCAGCAGAGUUGUUCGUGUCUGGAGCGUGAGUGAUGUUCAUGUCUGCCCUUGGCAGCAAACGGGAGAAG [KL-XTheo-B14],,,,,,0.137,0.113,0.123,0.0971,0.134
